Here are results for six molecules from patent US20190270826A1 (Janssen / Centocor, published 2019).

For test [1], the target named is T1, recombinant cyno IL1RAP ECD (cynomolgus monkey, UniProt P59822 21-367 (rhesus entry)).
T1 construct: also called rcynoIL1RAP
T1 sequence: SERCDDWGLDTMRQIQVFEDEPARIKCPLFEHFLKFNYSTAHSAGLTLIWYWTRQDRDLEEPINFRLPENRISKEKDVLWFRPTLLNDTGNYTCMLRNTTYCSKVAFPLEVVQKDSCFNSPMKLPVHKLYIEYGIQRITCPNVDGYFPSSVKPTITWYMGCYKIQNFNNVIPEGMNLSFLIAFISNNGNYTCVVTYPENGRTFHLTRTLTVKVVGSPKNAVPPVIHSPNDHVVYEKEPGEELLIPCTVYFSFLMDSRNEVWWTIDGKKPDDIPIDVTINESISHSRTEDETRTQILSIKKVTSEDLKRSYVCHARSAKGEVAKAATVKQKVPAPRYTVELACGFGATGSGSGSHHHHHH
Description: recombinant protein.

In test [2] the target is T2, recombinant human IL1RAP ECD (human, UniProt Q9NPH3 21-367).
T2 construct: His-tagged; also called hIL1RAP-ECD; rhuIL1RAP
T2 sequence: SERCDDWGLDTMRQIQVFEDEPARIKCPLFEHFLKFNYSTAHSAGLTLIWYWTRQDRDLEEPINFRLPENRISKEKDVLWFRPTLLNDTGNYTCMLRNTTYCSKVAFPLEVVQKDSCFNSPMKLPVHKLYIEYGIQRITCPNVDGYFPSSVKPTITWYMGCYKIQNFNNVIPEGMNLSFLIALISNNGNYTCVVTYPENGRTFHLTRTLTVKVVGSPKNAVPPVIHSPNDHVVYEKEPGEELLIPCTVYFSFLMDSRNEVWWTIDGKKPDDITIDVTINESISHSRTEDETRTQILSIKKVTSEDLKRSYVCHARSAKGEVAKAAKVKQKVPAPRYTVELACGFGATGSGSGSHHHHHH
Description: SPR (ProteOn). As to the method:
The rates of IL1RAP ECD association and dissociation were measured for each variant. The biosensor surface was prepared by covalently coupling Goat anti-Human IgG (Fc) to the surface of a GLC chip (BioRad) using the manufacturer instructions for amine-coupling chemistry. […] The RU immobilized also included a goat anti-mouse Fc antibody that was added to capture other antibodies not included in the ones reported here. Since the mixture was 1:1 about 50% of these RU immobilized are expected to be goat anti-human Fc. The kinetic experiments were performed at 25° C. in running buffer (PBS pH 7.4, 0.005% P20, 3 mM EDTA). […] (1:3) serial dilutions of human IL1RAP ECD, starting at 400 nM were prepared in running buffer. […] The reference spots (Goat anti-Human IgG (Fc)-modified surface) containing no candidate captured were used as a reference surface. Capture of mAb was followed by a 3 minute injection (association phase) of antigen at 40 μL/min, followed by 10 minutes of buffer flow (dissociation phase). […] Data was processed on the instrument software. Double reference subtraction of the data was performed by subtracting the curves generated by buffer injection from the reference-subtracted curves for analyte injections. Kinetic analysis of the data was performed using 1:1 Langmuir binding model with group fit.

Test [3] deals with T3, cyno IL1RAP ECD displayed on HEK-293F cells (pDisplay) (cynomolgus monkey, UniProt P59822 21-367 (rhesus entry)).
T3 sequence: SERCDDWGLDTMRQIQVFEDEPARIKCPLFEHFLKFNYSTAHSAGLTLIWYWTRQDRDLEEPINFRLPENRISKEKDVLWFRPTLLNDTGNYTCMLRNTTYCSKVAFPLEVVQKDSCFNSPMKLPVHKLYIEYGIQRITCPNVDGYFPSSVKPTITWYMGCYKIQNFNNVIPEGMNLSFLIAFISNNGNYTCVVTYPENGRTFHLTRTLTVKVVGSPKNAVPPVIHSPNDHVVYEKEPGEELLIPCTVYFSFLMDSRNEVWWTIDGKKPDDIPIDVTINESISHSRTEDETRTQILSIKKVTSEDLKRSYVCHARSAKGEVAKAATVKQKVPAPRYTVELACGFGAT
Description: HEK-293F cells (MSD).

The target in test [4] is T2, recombinant human IL1RAP ECD. Description: SPR, summary. Background: In SPR one partner is held on a chip, and binding of the other changes the refractive index at the surface.
In a further test the target is T4, human FcRn (human, UniProt P55899 24-297; P61769 21-119, limits assumed).
T4 construct: GST-tagged
Description: AlphaScreen competition, human FcRn (n=1); displaced: biotinylated control mAb B21M WT IgG1 (m27); pH 6.0. From the text:
(§1) Measurements were made using an AlphaScreen™ assay (Amplified Luminescent Proximity Homogeneous Assay (ALPHA), PerkinElmer, Wellesley, Mass.), a bead-based luminescent proximity assay. Laser excitation of a donor bead excites oxygen, which if sufficiently close to the acceptor bead generates a cascade of chemiluminescent events, ultimately leading to fluorescence emission at 520-620 nm.

For another test, the target named is T5, human FcγRIIb (human, UniProt P31994 43-217, limits assumed).
T5 construct: GST-tagged
T5 sequence (looked up): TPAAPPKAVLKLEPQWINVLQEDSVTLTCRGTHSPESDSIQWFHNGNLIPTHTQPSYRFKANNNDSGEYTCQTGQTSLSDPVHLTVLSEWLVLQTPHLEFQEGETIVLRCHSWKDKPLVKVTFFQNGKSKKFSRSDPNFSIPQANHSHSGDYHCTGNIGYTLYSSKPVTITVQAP
Put plainly: AlphaScreen competition, human FcγRIIb (n=1); displaced: biotinylated control mAb B21M hIgG1 WT; pH 7.2.
Source text: as §1
(In general: Bead proximity is the source of the signal in Alpha formats.)

For another test, the target named is T6, human FcγRI (human, UniProt P12314 16-292, limits assumed).
T6 construct: GST-tagged, on glutathione acceptor beads; also called FcγRT [sic]
Description: AlphaScreen competition, human FcγRI (n=1); displaced: biotinylated control mAb B21M hIgG1 AlaAla; pH 7.2.
Source text: as §1

B1: IAPB23 (antibody, human IgG4 S228P, kappa, F234A L235A, V domains shown)
VH: EVQLLESGGGLVQPGGSLRLSCAASGFTFSNYWMNWVRQAPGKGLEWVSAIRYDGGSKYYADSVKGRFTISRDNSKNTLYLQMNSLRAEDTAVYYCAKDAYPPYSFDYWGQGTLVTVSS
VL: EIVLTQSPATLSLSPGERATLSCRASQSVSSYLAWYQQKPGQAPRLLIYDASNRATGIPARFSGSGSGTDFTLTISSLEPEDFAVYYCQQRSNWPLTFGQGTKVEIKR
notes: IgG4-PAA; whole chains
Consider B1, for which the binding result in test [1] is “binds”. For the same molecule, in test [2], the Kd was determined as 4.7 nM, the koff was 0.00149 s⁻¹ and the kon came to 317000 M⁻¹ s⁻¹. For the same molecule, in test [3], the binding result is reported as “binds”. For the same molecule, the Kd in test [4] was 4.7 nM.

B2: IAPB57 (antibody, human IgG4 S228P, kappa, F234A L235A)
heavy: not shown
light: DIQLTQSPSFLSASVGDRVTITCRASQGISSYLAWYQQKPGKAPKLLIYAASTLQSGVPSRFSGSGSGTEFTLTISSLQPEDFATYYCQQVNSYPLTFGGGTKVEIKRTVAAPSVFIFPPSDEQLKSGTASVVCLLNNFYPREAKVQWKVDNALQSGNSQESVTEQDSKDSTYSLSSTLTLSKADYEKHKVYACEVTHQGLSSPVTKSFNRGEC
notes: IgG4-PAA; whole chains
For B2, the binding result (in test [1]; in test [3]; with human FcγRIIb) was “binds” each time. The “IC50 (read off the curve)” value with human FcRn is around 200 nM; in the test with human FcγRI, around 100 nM. Moreover, the Kd in test [4] was determined as 0.16 nM.

B3: CD3B219 - CD3B219 Parental, IgG4 PAA (antibody)
heavy chain: EVQLVESGGGLVQPGGSLRLSCAASGFTFNTYAMNWVRQAPGKGLEWVARIRSKYNNYATYYAASVKGRFTISRDDSKNSLYLQMNSLKTEDTAVYYCARHGNFGNSYVSWFAYWGQGTLVTVSSASTKGPSVFPLAPCSRSTSESTAALGCLVKDYFPEPVTVSWNSGALTSGVHTFPAVLQSSGLYSLSSVVTVPSSSLGTKTYTCNVDHKPSNTKVDKRVESKYGPPCPPCPAPEAAGGPSVFLFPPKPKDTLMISRTPEVTCVVVDVSQEDPEVQFNWYVDGVEVHNAKTKPREEQFNSTYRVVSVLTVLHQDWLNGKEYKCKVSNKGLPSSIEKTISKAKGQPREPQVYTLPPSQEEMTKNQVSLTCLVKGFYPSDIAVEWESNGQPENNYKTTPPVLDSDGSFLLYSKLTVDKSRWQEGNVFSCSVMHEALHNHYTQKSLSLSLGK
light chain: QTVVTQEPSLTVSPGGTVTLTCRSSTGAVTTSNYANWVQQKPGQAPRGLIGGTNKRAPGTPARFSGSLLGGKAALTLSGVQPEDEAEYYCALWYSNLWVFGGGTKLTVLGQPKAAPSVTLFPPSSEELQANKATLVCLISDFYPGAVTVAWKADSSPVKAGVETTTPSKQSNNKYAASSYLSLTPEQWKSHRSYSCQVTHEGSTVEKTVAPTECS
B3: the “IC50 (read off the curve)” value with human FcRn is around 200 nM; in the test with human FcγRI, around 60 nM. The binding result with human FcγRIIb is “binds”.

B4: IAPB03 (antibody, human IgG4 S228P, kappa, F234A L235A, V domains shown)
VH: QVQLVQSGAEVKKPGSSVKVSCKASGGTFSSYAISWVRQAPGQGLEWMGGISAIFGTANYAQKFQGRVTITADESTSTAYMELSSLRSEDTAVYYCARGNSFHALWDYAFDYWGQGTLVTVSS
VL: not shown
notes: IgG4-PAA; the entries called VH/VL are whole chains; also called IAPB3
Take B4: in test [1], the binding result was “binds”. Further, in test [2], the Kd is 2.64 nM, the koff worked out at 0.000357 s⁻¹ and the kon worked out at 135000 M⁻¹ s⁻¹. Besides, the binding result in test [3] was “binds”. The Kd in test [4] came out at 2.64 nM.

B5: IAPB55 (antibody, human IgG4 S228P, kappa, F234A L235A, V domains shown)
VH: QLQLQESGPGLVKPSETLSLTCTVSGVSISSSTYYWGWLRQPPGMGLEWTGSIYFTGNTYYNPSLKSRVTISVDTSRNQFSLKLSSVTAADTAVYYCGSLFGDYGYFDYWGQGTLVTVSS
VL: EIVMTQSPATLSVSPGERATLSCRASQFISSNLAWYQQKPGQAPRLLIYGASTRATGIPARFSGSGSGTDFTLTISSLQSEDFAVYYCQQYNNWPFTFGPGTKVDIKR
notes: IgG4-PAA; whole chains
For the molecule B5, the binding result in test [1] and in test [3] was “binds” each time. Also, in test [4], the Kd was determined as 1.64 nM.

B6: IAPB61 (antibody, human IgG4 S228P, kappa, F234A L235A, V domains shown)
VH: QLQLQESGPGLVKPSETLSLTCTVSGVSISSSTYYWGWLRQPPGMGLEWTGSIYFTGNTYYNPSLKSRVTISVDTSRNQFSLKLSSVTAADTAVYYCGSLFGDYGYFDYWGQGTLVTVSS
VL: EIVMTQSPATLSVPPGERATLSCRASQFISSNLAWYQQKPGQAPRLLIYGASTRATGIPARFSGSGSGTDFTLTISSLQSEDFAVYYCQQYNNWPSTFGPGTKVDIKR
notes: IgG4-PAA; whole chains
As to B6, the binding result in test [1] and in test [3] was “binds” in each case. For the same molecule, in test [4], the Kd amounted to 17.5 nM.

Broadly, the Kd is the free concentration of one partner at which half of the binding sites on the other are occupied at equilibrium, for simple one-to-one binding. Broadly, the koff is the first-order rate constant of dissociation. Usually kon stands for the rate constant with which the complex forms.
